Source: IntAct's records for PubMed 20526328

B1: Kinesin-like protein KIF17 (Homo sapiens), Q9P2E2 (parent)
chain: MASEAVKVVVRCRPMNQRERELRCQPVVTVDCARAQCCIQNPGAADEPPKQFTFDGAYHVDHVTEQIYNEIAYPLVEGVTEGYNGTIFAYGQTGSGKSFTMQGLPDPPSQRGIIPRAFEHVFESVQCAENTKFLVRASYLEIYNEDVRDLLGADTKQKLELKEHPEKGVYVKGLSMHTVHSVAQCEHIMETGWKNRSVGYTLMNKDSSRSHSIFTISIEMSAVDERGKDHLRAGKLNLVDLAGSERQSKTGATGERLKEATKINLSLSALGNVISALVDGRCKHVPYRDSKLTRLLQDSLGGNTKTLMVACLSPADNNYDETLSTLRYANRAKNIRNKPRINEDPKDALLREYQEEIKKLKAILTQQMSPSSLSALLSRQVPPDPVQVEEKLLPQPVIQHDVEAEKQLIREEYEERLARLKADYKAEQESRARLEEDITAMRNSYDVRLSTLEENLRKETEAVLQVGVLYKAEVMSRAEFASSAEYPPAFQYETVVKPKVFSTTDTLPSDDVSKTQVSSRFAELPKVEPSKSEISLGSSESSSLEETSVSEAFPGPEEPSNVEVSMPTEESRSRYFLDECLGQEAAGHLLGEQNYLPQEEPQEVPLQGLLGLQDPFAEVEAKLARLSSTVARTDAPQADVPKVPVQVPAPTDLLEPSDARPEAEAADDFPPRPEVDLASEVALEVVRTAEPGVWLEAQAPVALVAQPEPLPATAGVKRESVGMEVAVLTDDPLPVVDQQQVLARLQLLEQQVVGGEQAKNKDLKEKHKRRKRYADERRKQLVAALQNSDEDSGDWVLLNVYDSIQEEVRAKSKLLEKMQRKLRAAEVEIKDLQSEFQLEKIDYLATIRRQERDSMLLQQLLEQVQPLIRRDCNYSNLEKILRESCWDEDNGFWKIPHPVITKTSLPVAVSTGPQNKPARKTSAADNGEPNMEDDRYRLMLSRSNSENIASNYFRSKRASQILSTDARKSLTHHNSPPGLSCPLSNNSAIPPTQAPEMPQPRPFRLESLDIPFTKAKRKKSKSNFGSEPL

Variants of: B1
Details: with tnpo1_human TNPO1, Q92973
Sequence of tnpo1_human TNPO1, Q92973 (Q92973 whole entry): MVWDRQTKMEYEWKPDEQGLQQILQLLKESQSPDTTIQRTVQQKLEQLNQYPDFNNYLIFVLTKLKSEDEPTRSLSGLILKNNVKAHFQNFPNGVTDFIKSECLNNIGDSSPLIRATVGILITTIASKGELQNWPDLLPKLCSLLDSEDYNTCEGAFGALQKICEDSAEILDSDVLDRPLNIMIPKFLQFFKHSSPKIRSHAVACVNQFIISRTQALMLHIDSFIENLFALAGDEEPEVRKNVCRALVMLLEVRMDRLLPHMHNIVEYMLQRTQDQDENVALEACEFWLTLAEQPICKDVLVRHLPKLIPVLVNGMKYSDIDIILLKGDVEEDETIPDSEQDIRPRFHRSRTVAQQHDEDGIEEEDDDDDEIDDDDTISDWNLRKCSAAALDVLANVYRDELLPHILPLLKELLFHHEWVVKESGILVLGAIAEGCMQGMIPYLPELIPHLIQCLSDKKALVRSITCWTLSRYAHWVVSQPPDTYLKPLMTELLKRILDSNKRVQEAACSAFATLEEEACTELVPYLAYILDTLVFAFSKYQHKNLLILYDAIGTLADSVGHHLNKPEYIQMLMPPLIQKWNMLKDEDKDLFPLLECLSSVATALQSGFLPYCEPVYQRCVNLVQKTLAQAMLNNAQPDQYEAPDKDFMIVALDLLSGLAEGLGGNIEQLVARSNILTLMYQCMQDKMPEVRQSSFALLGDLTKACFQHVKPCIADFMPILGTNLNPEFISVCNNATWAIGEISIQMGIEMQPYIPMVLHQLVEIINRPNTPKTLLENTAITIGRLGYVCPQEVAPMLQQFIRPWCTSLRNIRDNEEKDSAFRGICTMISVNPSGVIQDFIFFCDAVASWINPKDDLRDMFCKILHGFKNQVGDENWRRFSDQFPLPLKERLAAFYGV

| effect of a mutation on the interaction | Variant |
| --- | --- |
| disrupting interaction strength | K1016A;R1017A;K1018A;K1019A |
